Data on one molecule can be found in publication PMC9917171, “Yet Another Similarity between Mitochondrial and Bacterial Ribosomal Small Subunit Biogenesis Obtained by Structural Characterization of RbfA from S. aureus” (International Journal of Molecular Sciences, 2023).

The target of the test is ribosomal binding factor A (RbfA) from Staphylococcus aureus, histidine tag at the N-terminus (S. aureus, UniProt A5ISF4 1-116). The experiment in a line: cryo-EM structure; 30S-RbfA complex reconstituted by mixing mature S. aureus 30S subunits and recombinant RbfA (1:30); overall resolution 2.9 Å. The note with it: both partners purified.

B1: ribosomal protein S7 of the S. aureus 30S subunit (natural protein)
chain: MPRKGSVPKRDVLPDPIHNSKLVTKLINKIMLDGKRGTAQRILYSAFDLVEQRSGRDALEVFEEAINNIMPVLEVKARRVGGSNYQVPVEVRPERRTTLGLRWLVNYARLRGEKTMEDRLANEILDAANNTGGAVKKREDTHKMAEANKAFAHYRW
notes: 30S ribosomal protein S7, S. aureus RN6390; model built from the published S. aureus 30S (PDB 5ND8); Stood in the assay as part of the whole 30S subunit (16S rRNA and the other small subunit proteins; S21 and S1 not seen in the density); also called S7 head protein; source: endogenous, within 30S subunits obtained by dissociation of 70S ribosomes purified from S. aureus RN6390
As for B1, the binding result was “binds”.
